Source: paper PMC4005696, “Type III restriction endonucleases are heterotrimeric: comprising one helicase–nuclease subunit and a dimeric methyltransferase that binds only one specific DNA” (Nucleic Acids Research, 2014)

What was measured:
[1] = molecular target: PstII Mod subunit; test: SEC-MALS; 0.5–1.0 mg/ml (1.25–2.5 µM) enzyme, Superdex 200, Standard Assay Buffer minus BSA (50 mM Tris–HCl pH 8.0, 50 mM KCl, 10 mM MgCl2, 1 mM DTT), room temperature; enzyme alone or with excess Hex-labelled specific 50-mer DNA, with or without 1 mM ATP
[2] = molecular target: PstII Res subunit; test: as above
[3] = molecular target: EcoPI Res subunit (wild type, untagged) (Escherichia coli); test: as above
[4] = molecular target: EcoPI Res subunit (wild type, untagged) (Escherichia coli); test: native MS; enzyme only, 10 µM, dialysed against 100 mM ammonium acetate pH 7.0; Q-TOF II modified for high-mass operation
[5] = molecular target: T1, EcoP15I Res subunit R534A (Escherichia coli, UniProt Q5ZND2 1-970, R534A); test: SEC-MALS; 0.5–1.0 mg/ml (1.25–2.5 µM) enzyme, Superdex 200, Standard Assay Buffer minus BSA (50 mM Tris–HCl pH 8.0, 50 mM KCl, 10 mM MgCl2, 1 mM DTT), room temperature; enzyme alone or with excess Hex-labelled specific 50-mer DNA, with or without 1 mM ATP; details: both partners purified
T1 construct: Res subunit of the Type III restriction endonuclease EcoP15I, Escherichia coli; mutated in Motif VI of the helicase, lacks ATPase activity; also called R534A EcoP15I; R534A P15I; source: purified identically to the wild-type (DEAE-Sepharose, heparin, Superdex 200), co-purified with Mod
T1 sequence (looked up): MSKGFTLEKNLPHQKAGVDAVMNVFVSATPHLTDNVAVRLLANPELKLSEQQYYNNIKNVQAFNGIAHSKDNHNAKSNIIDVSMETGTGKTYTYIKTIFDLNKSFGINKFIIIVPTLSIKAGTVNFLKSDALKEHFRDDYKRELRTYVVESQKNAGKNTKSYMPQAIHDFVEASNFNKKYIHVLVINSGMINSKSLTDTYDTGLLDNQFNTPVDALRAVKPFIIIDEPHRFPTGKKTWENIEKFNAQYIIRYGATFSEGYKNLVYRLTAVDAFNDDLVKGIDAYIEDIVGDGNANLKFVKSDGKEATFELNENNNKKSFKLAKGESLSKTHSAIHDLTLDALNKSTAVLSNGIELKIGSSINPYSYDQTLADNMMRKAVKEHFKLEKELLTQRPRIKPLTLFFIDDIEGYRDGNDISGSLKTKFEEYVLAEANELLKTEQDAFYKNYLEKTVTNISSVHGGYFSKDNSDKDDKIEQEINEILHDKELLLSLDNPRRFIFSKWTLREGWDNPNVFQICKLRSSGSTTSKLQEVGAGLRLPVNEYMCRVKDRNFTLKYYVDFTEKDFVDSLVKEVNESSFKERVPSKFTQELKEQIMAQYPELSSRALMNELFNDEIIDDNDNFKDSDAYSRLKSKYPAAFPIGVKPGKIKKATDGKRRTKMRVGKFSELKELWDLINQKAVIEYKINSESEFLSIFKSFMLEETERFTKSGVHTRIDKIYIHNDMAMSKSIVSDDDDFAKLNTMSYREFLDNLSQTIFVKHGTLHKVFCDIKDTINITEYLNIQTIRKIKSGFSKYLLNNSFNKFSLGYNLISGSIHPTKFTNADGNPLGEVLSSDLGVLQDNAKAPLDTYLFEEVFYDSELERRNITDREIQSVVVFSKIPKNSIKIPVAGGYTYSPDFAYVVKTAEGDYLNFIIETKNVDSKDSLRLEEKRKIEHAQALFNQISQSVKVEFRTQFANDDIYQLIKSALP

[6] = molecular target: the molecule itself; test: native MS; wt EcoP15I 5 µM with 10 µM 50-mer DNA (1:2), 2 mM magnesium acetate (4 mM MgOAc and 2 mM ATP where ATP was added), buffer-exchanged into 100 mM ammonium acetate; Synapt G2 HDMS
[7] = molecular target: T2, EcoP15I Res subunit (wild type, untagged) (Escherichia coli, UniProt Q5ZND2 1-970); test: native MS; enzyme only, 10 µM, dialysed against 100 mM ammonium acetate pH 7.0; Q-TOF II modified for high-mass operation; details: both partners purified
T2 construct: Res (restriction) subunit of the Type III restriction endonuclease EcoP15I, Escherichia coli; Made only together with Mod from the natural operon; also called wt EcoP15I
T2 sequence (looked up): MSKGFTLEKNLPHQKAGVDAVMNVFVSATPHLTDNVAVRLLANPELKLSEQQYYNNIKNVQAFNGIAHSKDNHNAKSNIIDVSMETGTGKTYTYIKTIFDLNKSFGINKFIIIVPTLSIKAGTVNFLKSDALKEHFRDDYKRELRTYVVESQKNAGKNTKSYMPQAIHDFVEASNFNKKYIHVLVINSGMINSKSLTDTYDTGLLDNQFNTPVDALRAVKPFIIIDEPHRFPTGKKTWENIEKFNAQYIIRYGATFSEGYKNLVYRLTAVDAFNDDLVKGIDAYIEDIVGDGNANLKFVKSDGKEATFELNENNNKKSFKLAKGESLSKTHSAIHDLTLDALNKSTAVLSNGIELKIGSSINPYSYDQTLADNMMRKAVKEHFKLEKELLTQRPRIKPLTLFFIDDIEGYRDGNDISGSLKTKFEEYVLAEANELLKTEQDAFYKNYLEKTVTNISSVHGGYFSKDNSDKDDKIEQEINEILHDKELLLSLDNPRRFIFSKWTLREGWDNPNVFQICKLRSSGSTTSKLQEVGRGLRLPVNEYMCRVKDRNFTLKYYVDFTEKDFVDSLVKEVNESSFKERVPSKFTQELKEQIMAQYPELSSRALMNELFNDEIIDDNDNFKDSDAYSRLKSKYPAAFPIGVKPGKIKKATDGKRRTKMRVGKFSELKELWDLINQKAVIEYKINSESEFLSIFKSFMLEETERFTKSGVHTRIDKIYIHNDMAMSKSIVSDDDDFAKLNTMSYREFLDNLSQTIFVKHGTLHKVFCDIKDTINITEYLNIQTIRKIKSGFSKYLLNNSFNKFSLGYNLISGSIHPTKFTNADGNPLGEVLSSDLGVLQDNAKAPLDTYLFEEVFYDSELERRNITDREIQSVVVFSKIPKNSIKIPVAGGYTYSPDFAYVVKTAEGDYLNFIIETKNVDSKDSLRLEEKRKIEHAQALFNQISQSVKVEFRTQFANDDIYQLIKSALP

[8] = molecular target: T3, EcoP15I Res subunit with C-terminal Avi-tag, biotinylated (Escherichia coli, UniProt Q5ZND2 1-970, biotin on the Avi-tag (co-expressed biotin ligase)); test: as above; details: both partners purified
T3 construct: Res subunit of the Type III restriction endonuclease EcoP15I, Escherichia coli; also called biotinylated EcoP15I; bio-EcoP15I; not shown: Avi-tag, C-terminal, kept
T3 sequence (looked up): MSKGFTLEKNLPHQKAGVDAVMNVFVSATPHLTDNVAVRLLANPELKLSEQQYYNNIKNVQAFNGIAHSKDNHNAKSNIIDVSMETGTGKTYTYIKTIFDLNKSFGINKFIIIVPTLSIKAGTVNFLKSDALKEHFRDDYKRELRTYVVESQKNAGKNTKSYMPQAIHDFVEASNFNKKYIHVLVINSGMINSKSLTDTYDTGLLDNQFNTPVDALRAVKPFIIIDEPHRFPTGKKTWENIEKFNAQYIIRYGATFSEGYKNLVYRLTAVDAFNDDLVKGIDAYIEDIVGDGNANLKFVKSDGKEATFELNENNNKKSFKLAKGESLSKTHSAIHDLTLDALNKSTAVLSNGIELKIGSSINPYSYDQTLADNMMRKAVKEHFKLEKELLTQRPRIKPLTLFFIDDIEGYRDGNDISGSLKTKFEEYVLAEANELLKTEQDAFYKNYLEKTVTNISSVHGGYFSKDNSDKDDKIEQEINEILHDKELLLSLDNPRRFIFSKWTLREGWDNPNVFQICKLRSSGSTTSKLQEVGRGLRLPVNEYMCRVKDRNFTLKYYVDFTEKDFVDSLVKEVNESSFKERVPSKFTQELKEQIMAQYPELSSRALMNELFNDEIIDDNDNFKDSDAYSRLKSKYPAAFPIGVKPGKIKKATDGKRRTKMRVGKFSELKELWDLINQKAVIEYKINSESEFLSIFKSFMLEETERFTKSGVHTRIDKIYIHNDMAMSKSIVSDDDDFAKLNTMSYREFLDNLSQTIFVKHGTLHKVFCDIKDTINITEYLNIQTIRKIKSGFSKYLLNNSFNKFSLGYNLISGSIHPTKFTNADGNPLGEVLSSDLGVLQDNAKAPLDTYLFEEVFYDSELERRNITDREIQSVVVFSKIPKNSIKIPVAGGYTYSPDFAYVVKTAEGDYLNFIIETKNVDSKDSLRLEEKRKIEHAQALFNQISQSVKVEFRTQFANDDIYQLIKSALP

PstII Mod subunit (enzyme)
stoichiometry N [1]: 2
stoichiometry N [2]: 2 Mod per Res

EcoPI Mod subunit (untagged) (enzyme)
stoichiometry N [3]: 2 Mod per Res
stoichiometry N [4]: 2 Mod per Res

B1: EcoP15I Mod subunit (untagged) (enzyme, Escherichia coli, UniProt P12364 1-644, looked up)
chain: MKKETIFSEVETANSKQLAVLKANFPQCFDKNGAFIQEKLLEIIRASEVELSKESYSLNWLGKSYARLLANLPPKTLLAEDKTHNQQEENKNSQHLLIKGDNLEVLKHMVNAYAEKVKMIYIDPPYNTGKDGFVYNDDRKFTPEQLSELAGIDLDEAKRILEFTTKGSSSHSAWLTFIYPRLYIARELMREDGTIFISIDHNEFSQLKLVCDEIFGEQNHVGDLVWKNATDNNPSNIAVEHEYIIVYTKNKEQLISEWKSNISDVKNLLVNIGEEFASKYTGNELQEKYTQWFREHRSELWPLDRYKYIDKDGIYTGSQSVHNPGKEGYRYDIIHPKTKKPCKQPLMGYRFPLDTMDRLLSEEKIIFGDDENKIIELKVYAKDYKQKLSSVIHLDGRVATNELKELFPEMTQPFTNAKTIKLVEDLISFACDGEGIVLDFFAGSGTTAHTVFNLNNKNKTSYQFITVQLDEPTKDKSDAMKHGYNTIFDLTKERLIRASKKNRDQGFKVYQLMPDFRAKDESELTLSNHTFFDDVVLTPEQYDTLLTTWCLYDGSLLTTPIEDVDLGGYKAHLCDGRLYLIAPNFTSEALKALLQKVDSDKDFAPNKVVFYGSNFESAKQMELNEALKSYANKKSIELDLVVRN
notes: Mod (modification) subunit of the Type III restriction endonuclease EcoP15I, Escherichia coli; also called Mod2 (as dimer); source: with biotinylated Res: avidin resin, Mono-Q
binding result [5]: binds
stoichiometry N [6]: 2
stoichiometry N [7]: 2 Mod per Res
stoichiometry N [8]: 2 Mod per Res
